The values below come from US20110008841A1.

The assay concerns the target chimera L. Briefly: Bio-Plex titration on bead-captured chimera; cell bold and boxed = binding lost.

B1: AMH26/AML26 (antibody, IgG2, V domains shown)
VH: QVQLVESGGGLVKPGGSLRLSCAASGFTFSDYYMSWIRQAPGKGLEWVSYISSSGSTIYYADSVKGRFTISRDNAKNSLYLQMNSLRAEDTAVYYCARDRTYYFGSGSYEGMDVWGQGTTVTVSS
VL: EILMTQSPATLSVSPGERATLSCRASQSVYSNLAWYQQKPGQAPRLLISGASTRATGIPARFSGSGSGTEFTLTISSLQSEDFAVYYCQQYYNWPWTFGQGTKVEIK
As for B1, the EC50 cell marked as binding lost although the number is below wild type amounted to 6 pM.
